Measured values as given in IntAct's records for PubMed 14673118.

B1: Thioredoxin (Synechocystis sp. (strain PCC 6803 / Kazusa)), P52231 (parent)
chain: MSATPQVSDASFKEDVLDSELPVLVDFWAPWCGPCRMVAPVVDEISQQYEGKVKVVKLNTDENPNTASQYGIRSIPTLMIFKGGQRVDMVVGAVPKTTLASTLEKYL
partner: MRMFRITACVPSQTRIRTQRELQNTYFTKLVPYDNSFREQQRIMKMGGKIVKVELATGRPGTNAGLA
B2: Thioredoxin (Synechocystis sp. (strain PCC 6803 / Kazusa)), P52231 (parent)
chain: B1 chain
partner: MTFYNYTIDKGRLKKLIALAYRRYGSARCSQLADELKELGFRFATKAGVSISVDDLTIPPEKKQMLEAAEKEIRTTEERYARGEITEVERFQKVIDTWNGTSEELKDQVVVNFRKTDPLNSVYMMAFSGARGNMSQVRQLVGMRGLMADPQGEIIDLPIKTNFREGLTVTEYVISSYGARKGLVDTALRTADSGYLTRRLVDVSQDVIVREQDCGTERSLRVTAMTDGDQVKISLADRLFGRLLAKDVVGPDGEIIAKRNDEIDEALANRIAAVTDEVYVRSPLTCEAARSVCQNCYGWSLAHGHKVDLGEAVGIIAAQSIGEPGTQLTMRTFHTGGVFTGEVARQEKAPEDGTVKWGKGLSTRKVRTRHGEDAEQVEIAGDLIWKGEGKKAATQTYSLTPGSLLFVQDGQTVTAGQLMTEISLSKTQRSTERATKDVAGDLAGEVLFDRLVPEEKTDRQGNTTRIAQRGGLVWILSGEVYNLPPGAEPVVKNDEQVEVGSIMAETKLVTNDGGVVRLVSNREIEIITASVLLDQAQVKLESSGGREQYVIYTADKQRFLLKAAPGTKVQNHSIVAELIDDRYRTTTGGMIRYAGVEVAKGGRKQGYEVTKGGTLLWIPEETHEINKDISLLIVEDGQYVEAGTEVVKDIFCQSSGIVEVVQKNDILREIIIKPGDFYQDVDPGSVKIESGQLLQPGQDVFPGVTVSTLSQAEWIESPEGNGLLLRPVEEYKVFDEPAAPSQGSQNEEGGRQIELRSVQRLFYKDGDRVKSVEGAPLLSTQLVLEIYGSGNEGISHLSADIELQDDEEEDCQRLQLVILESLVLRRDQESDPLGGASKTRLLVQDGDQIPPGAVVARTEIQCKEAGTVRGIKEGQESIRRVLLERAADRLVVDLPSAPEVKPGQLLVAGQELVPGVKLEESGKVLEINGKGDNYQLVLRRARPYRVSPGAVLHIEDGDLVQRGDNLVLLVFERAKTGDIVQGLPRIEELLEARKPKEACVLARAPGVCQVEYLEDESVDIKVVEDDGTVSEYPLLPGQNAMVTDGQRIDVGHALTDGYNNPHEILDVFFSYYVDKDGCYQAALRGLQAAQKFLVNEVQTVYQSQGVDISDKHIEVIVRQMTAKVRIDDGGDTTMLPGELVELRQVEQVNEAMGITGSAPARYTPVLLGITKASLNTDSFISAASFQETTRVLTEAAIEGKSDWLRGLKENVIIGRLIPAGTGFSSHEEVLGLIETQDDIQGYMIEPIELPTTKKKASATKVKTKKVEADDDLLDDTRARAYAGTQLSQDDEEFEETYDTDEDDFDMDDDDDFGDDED
B3: Thioredoxin (Synechocystis sp. (strain PCC 6803 / Kazusa)), P52231 (parent)
chain: B1 chain
partner: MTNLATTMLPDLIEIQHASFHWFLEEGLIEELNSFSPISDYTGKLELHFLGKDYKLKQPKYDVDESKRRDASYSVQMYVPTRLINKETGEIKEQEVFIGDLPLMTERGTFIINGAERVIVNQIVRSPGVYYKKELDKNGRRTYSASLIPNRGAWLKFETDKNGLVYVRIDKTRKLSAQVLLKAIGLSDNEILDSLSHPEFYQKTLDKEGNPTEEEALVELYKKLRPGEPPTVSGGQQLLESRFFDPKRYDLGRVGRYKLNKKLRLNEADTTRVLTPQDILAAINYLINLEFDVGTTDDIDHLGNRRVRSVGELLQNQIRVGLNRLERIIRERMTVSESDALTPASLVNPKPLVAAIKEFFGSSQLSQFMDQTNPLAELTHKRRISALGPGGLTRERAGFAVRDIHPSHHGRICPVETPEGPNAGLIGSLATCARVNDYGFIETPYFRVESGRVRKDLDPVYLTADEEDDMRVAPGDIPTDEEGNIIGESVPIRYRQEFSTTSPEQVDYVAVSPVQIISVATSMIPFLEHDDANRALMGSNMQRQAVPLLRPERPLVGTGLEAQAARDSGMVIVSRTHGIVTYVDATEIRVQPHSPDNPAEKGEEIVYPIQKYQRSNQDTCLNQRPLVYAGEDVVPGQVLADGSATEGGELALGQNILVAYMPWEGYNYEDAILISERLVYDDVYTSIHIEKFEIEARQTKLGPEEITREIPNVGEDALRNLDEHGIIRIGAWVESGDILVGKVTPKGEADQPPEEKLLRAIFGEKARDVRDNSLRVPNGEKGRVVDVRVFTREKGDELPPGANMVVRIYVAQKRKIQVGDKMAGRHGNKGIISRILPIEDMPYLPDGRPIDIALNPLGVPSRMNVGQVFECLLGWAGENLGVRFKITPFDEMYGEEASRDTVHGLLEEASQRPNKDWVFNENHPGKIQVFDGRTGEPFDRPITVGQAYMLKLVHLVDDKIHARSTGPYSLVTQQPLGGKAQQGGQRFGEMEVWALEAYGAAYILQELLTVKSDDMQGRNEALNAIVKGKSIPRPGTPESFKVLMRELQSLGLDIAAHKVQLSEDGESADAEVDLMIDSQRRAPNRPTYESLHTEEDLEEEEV
B4: Thioredoxin (Synechocystis sp. (strain PCC 6803 / Kazusa)), P52231 (parent)
chain: B1 chain
partner: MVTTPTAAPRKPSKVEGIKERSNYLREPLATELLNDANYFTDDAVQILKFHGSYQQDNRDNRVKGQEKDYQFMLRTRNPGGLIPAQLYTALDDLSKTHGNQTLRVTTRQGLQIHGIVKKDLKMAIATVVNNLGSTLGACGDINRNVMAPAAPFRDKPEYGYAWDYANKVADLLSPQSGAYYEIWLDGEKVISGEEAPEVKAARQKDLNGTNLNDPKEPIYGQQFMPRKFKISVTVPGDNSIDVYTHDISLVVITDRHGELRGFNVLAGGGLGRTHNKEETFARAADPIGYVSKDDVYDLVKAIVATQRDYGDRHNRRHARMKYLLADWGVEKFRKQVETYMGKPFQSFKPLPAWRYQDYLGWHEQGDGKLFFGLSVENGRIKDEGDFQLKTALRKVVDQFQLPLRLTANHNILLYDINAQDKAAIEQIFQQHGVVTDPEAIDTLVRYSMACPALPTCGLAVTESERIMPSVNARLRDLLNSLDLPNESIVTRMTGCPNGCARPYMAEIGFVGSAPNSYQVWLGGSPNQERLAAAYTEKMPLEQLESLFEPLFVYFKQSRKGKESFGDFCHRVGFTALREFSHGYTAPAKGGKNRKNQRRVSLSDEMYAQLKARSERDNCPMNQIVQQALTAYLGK
B5: Thioredoxin (Synechocystis sp. (strain PCC 6803 / Kazusa)), P52231 (parent)
chain: B1 chain
partner: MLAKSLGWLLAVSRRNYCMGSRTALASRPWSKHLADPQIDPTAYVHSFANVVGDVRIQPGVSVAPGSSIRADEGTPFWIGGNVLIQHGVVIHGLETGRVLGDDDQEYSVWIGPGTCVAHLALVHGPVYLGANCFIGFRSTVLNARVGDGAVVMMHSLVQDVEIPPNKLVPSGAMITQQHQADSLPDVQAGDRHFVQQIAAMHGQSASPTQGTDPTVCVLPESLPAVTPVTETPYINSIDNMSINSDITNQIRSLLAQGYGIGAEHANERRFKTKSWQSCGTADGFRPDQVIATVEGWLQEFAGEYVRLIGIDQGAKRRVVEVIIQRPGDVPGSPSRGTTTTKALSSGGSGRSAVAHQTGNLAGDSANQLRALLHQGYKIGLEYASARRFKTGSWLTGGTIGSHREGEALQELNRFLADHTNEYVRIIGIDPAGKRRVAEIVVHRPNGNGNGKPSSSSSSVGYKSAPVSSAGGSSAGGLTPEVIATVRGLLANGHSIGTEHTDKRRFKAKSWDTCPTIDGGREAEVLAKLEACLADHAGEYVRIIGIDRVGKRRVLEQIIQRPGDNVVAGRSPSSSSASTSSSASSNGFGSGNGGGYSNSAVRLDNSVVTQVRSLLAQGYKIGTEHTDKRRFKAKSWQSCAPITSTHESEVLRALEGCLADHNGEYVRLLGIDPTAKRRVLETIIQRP
B6: Thioredoxin (Synechocystis sp. (strain PCC 6803 / Kazusa)), P52231 (parent)
chain: B1 chain
partner: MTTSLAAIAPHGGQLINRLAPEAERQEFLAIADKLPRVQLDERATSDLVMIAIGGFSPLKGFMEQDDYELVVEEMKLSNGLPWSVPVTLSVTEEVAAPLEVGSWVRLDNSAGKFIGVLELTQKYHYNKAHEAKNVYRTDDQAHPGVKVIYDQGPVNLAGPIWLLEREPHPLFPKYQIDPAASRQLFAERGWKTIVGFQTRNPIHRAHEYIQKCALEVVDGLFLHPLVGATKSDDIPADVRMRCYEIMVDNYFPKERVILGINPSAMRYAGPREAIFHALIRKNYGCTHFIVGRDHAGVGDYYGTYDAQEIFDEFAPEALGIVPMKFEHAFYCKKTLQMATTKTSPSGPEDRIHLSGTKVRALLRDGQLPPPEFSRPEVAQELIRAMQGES

Variants of: B1
Conditions: with pyc1_syny3 apcC

How did the “effect of a mutation on the interaction” value turn out when C35S was run?
Its value is “increasing interaction”.

Variants of: B2
Conditions: with rpoc2_syny3 rpoC2, P73334

Which “effect of a mutation on the interaction” value does the source give for C35S here?
Its value is “increasing interaction”.

Variants of: B3
Conditions: with rpob_syny3 rpoB

With C35S as the variant, how does the “effect of a mutation on the interaction” value read?
The value was “increasing interaction”.

Variants of: B4
Conditions: with sir_syny3 sir

For C35S, which “effect of a mutation on the interaction” value is on record?
The value was “increasing interaction”.

Variants of: B5
Conditions: with ccmm_syny3 ccmM

C35S was tested. Which “effect of a mutation on the interaction” value did it give?
Its value is “increasing interaction”.

Variants of: B6
Conditions: with sat_syny3 sat

For C35S, which “effect of a mutation on the interaction” value is on record?
The value was “increasing interaction”.
